# In patent publication US7795390B2, “Biological substance nesfatin and its related substances and uses thereof” (Teijin Pharma Limited, priority 2005, dated 2010):
# Columns and labels:
# [1] = test system: Wistar rats; test: Continuous intraventricular administration of nesfatin antisense RNA, food intake and body weight; format: in vivo, rat
# Protocol: As the antisense RNA against nesfatin-1 gene, was used a morpholino RNA which sandwiches a translational start site, as follows.
# The administration of nesfatin antisense RNA was carried out into the ventricle by an osmotic pump for 12 consecutive days using an osmotic pump. Among 8 week-old male Wistar rats (purchased from Nippon SLC), those individuals weighing 200-250 g were selected and used. The rats received intraperitoneal administration of 40 mg/kg body weight of pentobarbital sodium for anesthesia. After the hair was removed from the head, they were fixed in a brain stereotaxic apparatus (David Kopf Instruments, Model 962) and the scalp was incised and a 23G needle (guide cannula) was implanted so that the tip reaches the third ventricle (2.5 mm behind the bregma, 9.5 mm from the surface). One week after implanting the guide cannula, the animals were subjected to the experiment. The osmotic pump used was Alzet's Model 2002 that was primed in sterilized physiological saline from the day before use. Nesfatin antisense RNA (antisense administration group) dissolved in physiological saline that was filter-sterilized with 0.22 μm Millex GV filter, or missence RNA (ATcGTgCTCCACgTCATCTaCAcAG) sterilized in the same manner that dissolved in sterilized physiological saline (control group) were injected into the osmotic pump immediately before use. […] The measurement of the amount of food intake started from the day after the cannula and the osmotic pump were implanted, and the weight of the residual food was measured at 9 a.m. every day and, by determining the difference from the weight of the food on the previous day, the amount of food intake of the day (24 hours) was calculated. From day 6 after the start of administration, body weight was measured at the time of measuring the amount of food intake, and changes in body weight were also recorded.
# [2] = test system: nesfatin-1; test: Western blotting of nesfatin-1 in hypothalamus after antisense RNA administration (densitometry); format: in vivo; conditions: rat hypothalamus, day 12; control group 14.3±1.2 AU
# Protocol: On day 12 after the start of administration, the individuals in each group were sacrificed, and the hypothalamus in the brain was removed. Using the sample extracted, the expression of nesfatin was confirmed by Western blotting with nesfatin-1 Ab. Western blotting was carried out in a manner similar to those described in Working Examples 13 and 12. The concentration of bands stained in Western blotting was determined by densitometry.
# [3] = test system: Wistar rats; test: Administration of recombinant nesfatin into the third ventricle, amount of food intake; format: in vivo, rat; conditions: for control activity of food intake: 1-3 hour and 3-6 hours
# Protocol: Rats used were Wistar rats (purchased from Nippon SLC), and the animals were housed under a cycle of 12 hours of the light period from 6 a.m. to 6 p.m. and 12 hours of the dark period from 6 p.m. to 6 a.m. the next morning and fed a powder chew (Nippon Clea, CE-2), and kept at 22° C., and housing was continued under a similar condition during the experiment. For the experiment, among 8-9 week-old male Wistar rats, those individuals weighing 200-250 g were used. For administration, 5 μl of saline (control) or recombinant nesfatin prepared in Working Example 5 dissolved to 0.2 pmol, 0.6 pmol and 3.0 pmol in 5 μl of PBS was administered per individual (N=5 for each group). The rats received intraperitoneal administration of 40 mg/kg body weight of pentobarbital sodium for anesthesia. After the hair was removed from the head, they were fixed in a brain stereotaxic apparatus (David Kopf Instruments, Model 962) and the scalp was incised and a 23G needle (guide cannula) was implanted so as to reach the third ventricle (2.5 mm behind the bregma, 9.5 mm from the surface). One week after implanting the guide cannula, the animals were subjected to the experiment. After recovering from the surgery, a 29G cannula for injection was inserted into the guide cannula under no anesthesia, and 5 μl of PBS or the matured mouse nesfatin solution in PBS was administered at a rate of 1 μl/second. After fixing the cannula as it was for 2-3 minutes after the administration, the cannula was extracted, and the animals were returned to the individual cages. One, three, and six hours thereafter, the weight of the food was determined to record the amount of food intake, which was used as an index of feeding behavior. For the test of significant difference, analysis of variance was used.
# The PCR product obtained was subjected to 1% agarose gel electrophoresis to excise an amplified band, which was purified with QIAEX-II kit (QIAGEN). The amplified DNA excised was cleaved with restriction enzymes SpeI and NotI, and ligated to pET41a(+) plasmid vector (Novagen) cleaved with restriction enzymes SpeI and NotI, using the Quick DNA ligase kit (New England Biolabs). From the cloned DNA, a clone, which has no errors in mutant portions introduced after analyzing DNA sequences in a similar manner to Working Example 5 and other nucleotide sequences, can be selected to obtain a vector for expressing the KR-AA mutant. The expression and purification were carried out in a similar manner to Working Example 5. The amino acid sequence of the KR-AA mutant obtained is set forth in SEQ ID NO: 61. Wt (normal nesfatin), which was prepared in Working Example 5, was used. 5 pmol each of the KR-AA mutant (Mut) peptide and the normal nesfatin (Wt) peptide were administered to the third ventricle of rats in a similar manner to Working Example 6. One, three, six and 12 hours thereafter, the weight of the food was determined to record the amount of food intake, which was used as an index of feeding behavior.
# Also, in the same manner as in Working Example 6, after 5 pmol of nesfatin was administered into the rat ventricle, the amount of food intake was determined during 0-1 hour/1-3 hours/3-6 hours after the administration. The control group used was the one that only received physiological saline (0 pmol). For testing of significant difference, analysis of variance was used.
# [4] = test system: Wistar rats; test: Administration of nesfatin-1, nesfatin-2, nesfatin-3, nesfatin-2/3 into the third ventricle, amount of food intake; format: in vivo, rat; conditions: given alone into the third ventricle (nesfatin-1 5 pmol; leptin 1 μg); vs saline control
# Protocol: Samples used for intracerebral administration were PBS alone (vehicle group), or nesfatin-1, nesfatin-2, nesfatin-3 or nesfatin-2/3 prepared in Working Example 10 each dissolved in PBS, and 25 pmol was administered per individual into the third ventricle immediately before the dark period. Rats used were Wistar rats (purchased from Nippon SLC) and were housed as in Working Example 6, and among 8-9 week-old male Wistar rats, those individuals weighing 200-250 g were selected and used (N=5). The technique of intraventricular administration and the measurement of the amount of food intake in rats were carried out in a method similar to those in Working Example 6. In the measurement of the amount of food intake, the reduced amount of food at 1 hour after administration (0-1 hr) and 2 hours after administration (1-3 hrs) was determined as food intake.
# In the same condition above, 1, 5 or 25 pmol of nesfatin-1 as a sample was administered per rat individual into the third ventricle immediately before the dark period. In this experiment, the amount of food intake was determined at 1 hour after administration (0-1 hr).
# The experimental condition was similar to that in Working Example 12, and 5 pmol of nesfatin-1 was administered into the third ventricle of the rat brain immediately before the start of the dark period, the amount decreased of the food (the amount of food intake) during 1 hour immediately after administration (0-1 hr), during 2 hours from 1 hour after the administration (1-3 hr), during 3 hours from 3 hours after the administration (3-6 hr), and during 6 hours from 6 hours after the administration (6-12 hr) was measured as the amount of food intake. As the control group, the amount of food intake by individuals that received physiological saline alone was measured.
# The experimental condition was similar to that in Working Example 12, and for a group that received 5 pmol of nesfatin-1 alone into the third ventricle of the rat brain immediately before the start of the dark period and a group that received 5 pmol of nesfatin-1 and 8 μg of anti-nesfatin-1 antibody (nesfatin-1 IgG), the amount of food intake for 1 hour after administration was measured and compared to that for the control group (physiological saline alone was administered). Also, for a group that received only leptin (Rat leptin: R & D Systems, 598-LP-01M) (1 μg) which is known to have an activity of suppressing food intake by intraventricular administration and a group that received leptin and anti-nesfatin-1 antibody, its effect on food intake was also studied.
# [5] = 5 pmol intraventricular, 0-1 hour
molecule,measurement,setting,value
5-ATGGTCCTCCACCTCATCTTCAGAG-3 (all phosphorodiamidate morpholino (PMO)) [nesfatin antisense RNA],amount of food intake during 24 hours,"[1]; 40 μg, osmotic pump, third ventricle, 12 days, from day 1, vs missense RNA control",an increase in the amount of food intake
same,body weight,"[1]; day 6 after the start of administration, vs missense RNA control",no difference
same,body weight,"[1]; day 7 and after, P<0.05 vs missense RNA control",significant increase in body weight
same,"expression of nesfatin-1, band intensity by densitometry",[2],8.5±0.7 AU
"recombinant nesfatin: recombinant matured mouse nesfatin (SEQ ID NO: 26) expressed in E. coli as GST fusion and cleaved with thrombin (protein, Chemically-synthesized nesfatin mutant protein) GSPIDVDKTKVHNTEPVENARIEPPDTGLYYDEYLKQVIEVLETDPHFREKLQKADIEEIRSGRLSQELDLVSHKVRTRLDELKRQEVGRLRMLIKAKLDALQDTGMNHHLLLKQFEHLNHQNPNTFESRDLDMLIKAATADLEQYDRTRHEEFKKYEMMKEHERREYLKTLSEEKRKEEESKFEEMKRKHEDHPKVNHPGSKDQLKEVWEETDGLDPNDFDPKTFFKLHDVNNDGFLDEQELEALFTRELEKVYNPQNAEDDMIEMEEERLRMREHVMSEIDNNKDRLVTLEEFLRATEKKEFLEPDSWETLDQQQLFTEDELKEYESIIAIQENELKKRAEELQKQKEDLQRQHDHLEAQKQEYHQAVQHLEQKKLQQGIAPSGPAGELKFEPHT",amount of food intake,"[3]; 4 pmol or 20 pmol into the brain ventricle, 0-1 hour, p<0.01 vs 0 pmol",significantly reduced
same,amount of food intake,"[3]; 5 pmol intraventricular, 0-1 hour (p<0.01), 1-3 hours (p<0.05) and 3-6 hours (p<0.001)",significant reduction in the amount of food intake
same,control activity of food intake,[3]; [5],a significant control activity of food intake was observed
same,amount of food intake,"[3]; 5 pmol intraventricular, 6-12 hours",no difference
same,amount of food intake,"[3]; 20 pmol into the third ventricle, any of 0-1 hour/1-3 hours/3-6 hours, P<0.01 vs control",significant activity of suppressing food intake
same,amount of food intake,"[3]; 1, 4 and 20 pmol into the third ventricle, 0-1, 1-3 and 3-6 hours, vs saline",reduction in the amount of food intake was noted in a dose dependent manner
same,amount of food intake for 1 hour after administration,[4],significantly decreased
"Mut: nesfatin mutant in which Lys-Arg at amino acid numbers 84 and 85 is replaced with Ala-Ala (SEQ ID NO: 61) (protein, Chemically-synthesized KR-AA mutant polypeptide) GSPIDVDKTKVHNTEPVENARIEPPDTGLYYDEYLKQVIEVLETDPHFREKLQKADIEEIRSGRLSQELDLVSHKVRTRLDELAAQEVGRLRMLIKAKLDALQDTGMNHHLLLKQFEHLNHQNPNTFESRDLDMLIKAATADLEQYDRTRHEEFKKYEMMKEHERREYLKTLSEEKRKEEESKFEEMKRKHEDHPKVNHPGSKDQLKEVWEETDGLDPNDFDPKTFFKLHDVNNDGFLDEQELEALFTRELEKVYNPQNAEDDMIEMEEERLRMREHVMSEIDNNKDRLVTLEEFLRATEKKEFLEPDSWETLDQQQLFTEDELKEYESIIAIQENELKKRAEELQKQKEDLQRQHDHLEAQKQEYHQAVQHLEQKKLQQGIAPSGPAGELKFEPHT",control activity of food intake,[3]; [5],no control activity of food intake was observed
